T1: AtRTE1-Cub-PLV (Arabidopsis, UniProt F4ITL6 1-250)
T1 construct: Bait of the mating-based split-ubiquitin yeast two-hybrid system; also called AtRTE1 bait construct; not shown: C-terminal half of ubiquitin (Cub); synthetic transcription factor PLV (protease A-LexA-VP16)
T1 sequence (looked up): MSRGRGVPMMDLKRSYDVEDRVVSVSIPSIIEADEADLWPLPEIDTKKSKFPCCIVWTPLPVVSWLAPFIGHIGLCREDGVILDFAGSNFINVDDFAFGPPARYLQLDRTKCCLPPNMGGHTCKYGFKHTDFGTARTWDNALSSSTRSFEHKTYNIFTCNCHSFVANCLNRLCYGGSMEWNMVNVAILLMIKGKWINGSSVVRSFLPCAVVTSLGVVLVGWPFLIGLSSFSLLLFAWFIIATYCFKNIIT

B1: AtARL-NubG (other, UniProt Q8RXL7 1-135, looked up)
chain: MIREFSSLQNDIINIQEHYSLNNNMDVRGDHNRKNTSFRGSAPAPIMGKQELFRTLSSQNSPRRLISASYFSLESMVVLVGLTASLLILPLILPPLPPPPFMLLLIPIGIMVLLMVLAFMPSSNSKHVSSSSTFM
notes: Prey of the split-ubiquitin yeast two-hybrid system; also called Arabidopsis ARGOS-LIKE (ARL); not shown: N-terminal half of a mutated ubiquitin (NubG)
B2: ZmRTL4-Cub-PLV (other)
chain: MENDRRQLGQIDPRRARFPCCIVWTPIPFITWLVPFIGHIGICREDGVILDFSGPHFVSVDNFAFGAVARYIQVNCDECYKLIEPEGDATWDGALKKGTQEFQNRNYNLFTCNCHSFVANNLNRLFYSGHDEWNVVSLAAVMFLRGRWVSTASVVKTLLPFAVVLSIGTFLGGTTFLTGLLAFAAAMTVWFLVGTYCIKGLIEL
notes: domain: C-terminal half of ubiquitin (Cub); Bait of the split-ubiquitin yeast two-hybrid system; the legend prints ZmRTE4-Cub-PLV; also called ZmRTE4-Cub-PLV; ZmRTL4 bait construct; not shown: C-terminal half of ubiquitin (Cub); synthetic transcription factor PLV (protease A-LexA-VP16)

Key:
AtRTE1-Cub-PLV = biological target: T1, AtRTE1-Cub-PLV; test: yeast split-ubiquitin two-hybrid
Experimental: (§1) (B) β-Galactosidase assay for yeast diploid cells expressing AtRTE1-Cub-PLV and various ARGOS-NubG fusion proteins. Yeast cells were cultured in SC-Leu-Trp liquid medium. The β-Galactosidase (β-Gal) activity assay uses […] as a substrate. (C) Growth of yeast diploid cells from the mating of haploid strains containing ARGOS-NubG constructs and negative control […] construct. The plates were incubated at 28° C. for 4 days. (D) Liquid β-Galactosidase assay for yeast diploid cells expressing negative control AtCHX20-Cub-PLV and various ARGOS-NubG fusion proteins.
(§2) (A) Growth of yeast diploid cells on SC dropout media to show protein-protein interaction of ZmRTL4 with Arabidopsis and maize ARGOS. The SC-Leu-Trp and SC-Leu-Trp-His-Ade media contain 134 and 375 μM Met, respectively. The plates were incubated at 28° C. for 4 days. (B) β-Galactosidase assay for yeast diploid cells expressing ZmRTE4-Cub-PLV and various ARGOS-NubG fusion proteins. (C) Growth of yeast diploid cells on SC dropout media to show protein-protein interaction of ZmRTL2 with Arabidopsis and maize ARGOS. The SC-Leu-Trp and SC-Leu-Trp-His-Ade media contain 134 μM Met. The plates were incubated at 28° C. for 5 days. (D) β-Galactosidase assay for yeast diploid cells expressing ZmRTE2-Cub-PLV and various ARGOS-NubG fusion proteins. […]

AtARL-NubG = biological target: B1; test: yeast split-ubiquitin two-hybrid
Experimental: as §1, §2

Binder	binding result (AtRTE1-Cub-PLV)	binding result (AtARL-NubG)
B1	binds	–
B2	–	binds

From US20170247716A1 (PIONEER HI BRED INTERNATIONAL, published 2017)
